Measured values published in patent publication US20200299373A1.
Several values for one entry are separate records, joined by “and”; a condition that tells them apart may be missing. Equal entries are not always repeated.

Assays:
[1] = target: recombinant human FAM19A5 protein (His-tagged) (human) (UniProt Q7Z5A7); test: two-site sandwich ELISA; capture antibody 2-13; S/N = O.D. at 10 ng/mL antigen / O.D. at 0 ng/mL; O.D. in column 0 printed 0.55
[2] = target: recombinant human FAM19A5 protein (His-tagged) (human) (UniProt Q7Z5A7); test: two-site sandwich ELISA; capture antibody P2-F11; S/N = O.D. at 10 ng/mL antigen / O.D. at 0 ng/mL; O.D. in column 0 printed 0.19
[3] = target: recombinant human FAM19A5 protein (His-tagged) (human) (UniProt Q7Z5A7); test: two-site sandwich ELISA; capture antibody 13B4; S/N = O.D. at 10 ng/mL antigen / O.D. at 0 ng/mL; O.D. in column 0 printed 0.15
[4] = target: recombinant human FAM19A5 protein (His-tagged) (human) (UniProt Q7Z5A7); test: ELISA, His-FAM19A5 (positive control) coated on the plate, absorbance at 492 nm
[5] = target: recombinant human FAM19A5 protein (His-tagged) (human) (UniProt Q7Z5A7); test: two-site sandwich ELISA; capture antibody 3-2; S/N = O.D. at 10 ng/mL antigen / O.D. at 0 ng/mL; O.D. in column 0 printed 0.28
[6] = target: recombinant human FAM19A5 protein (His-tagged) (human) (UniProt Q7Z5A7); test: ELISA on N'-Term His FAM19A5, fit of the titration (OD 492 nm); R2 printed 0.8806
[7] = target: recombinant human FAM19A5 protein (His-tagged) (human) (UniProt Q7Z5A7); test: two-site sandwich ELISA; capture antibody 2-13; biotinylated detection antibody 1-65; antigen in ng/mL
[8] = target: recombinant human FAM19A5 protein (His-tagged) (human) (UniProt Q7Z5A7); test: two-site sandwich ELISA; capture antibody P2-A03; S/N = O.D. at 10 ng/mL antigen / O.D. at 0 ng/mL; O.D. in column 0 printed 0.1
[9] = target: recombinant human FAM19A5 protein (His-tagged) (human) (UniProt Q7Z5A7); test: two-site sandwich ELISA; capture antibody 3-2; biotinylated detection antibody 1-65; antigen in ng/mL
[10] = target: recombinant human FAM19A5 protein (His-tagged) (human) (UniProt Q7Z5A7); test: ELISA on coated FAM19A5, as in Example 6
[11] = target: recombinant human FAM19A5 protein (His-tagged) (human) (UniProt Q7Z5A7); test: two-site sandwich ELISA; capture antibody P2-A03; biotinylated detection antibody 1-65; antigen in ng/mL
[12] = target: recombinant human FAM19A5 protein (His-tagged) (human) (UniProt Q7Z5A7); test: two-site sandwich ELISA; capture antibody P2-F11; biotinylated detection antibody 1-65; antigen in ng/mL
[13] = target: recombinant human FAM19A5 protein (His-tagged) (human) (UniProt Q7Z5A7); test: two-site sandwich ELISA; capture antibody 13B4; biotinylated detection antibody 1-65; antigen in ng/mL
[14] = target: recombinant human FAM19A5 protein (His-tagged) (human) (UniProt Q7Z5A7); test: ELISA on N'-Term His FAM19A5, fit of the titration (OD 492 nm); R2 printed 0.9329
[15] = target: recombinant human FAM19A5 protein (His-tagged) (human) (UniProt Q7Z5A7); test: ELISA on N'-Term His FAM19A5, fit of the titration; R2 printed 0.9329
[16] = target: recombinant human FAM19A5 protein (His-tagged) (human) (UniProt Q7Z5A7); test: ELISA on N'-Term His FAM19A5, fit of the titration (OD 492 nm); R2 printed 0.8823
[17] = target: recombinant human FAM19A5 protein (His-tagged) (human) (UniProt Q7Z5A7); test: two-site sandwich ELISA; capture antibody 1-65; biotinylated detection antibody 13B4; antigen in ng/mL
[18] = target: recombinant human FAM19A5 protein (His-tagged) (human) (UniProt Q7Z5A7); test: two-site sandwich ELISA; capture antibody 3-2; S/N = O.D. at 10 ng/mL antigen / O.D. at 0 ng/mL; O.D. in column 0 printed 0.13
[19] = target: recombinant human FAM19A5 protein (His-tagged) (human) (UniProt Q7Z5A7); test: two-site sandwich ELISA; capture antibody 3-2; biotinylated detection antibody 13B4; antigen in ng/mL
[20] = target: recombinant human FAM19A5 protein (His-tagged) (human) (UniProt Q7Z5A7); test: two-site sandwich ELISA; capture antibody P2-F11; S/N = O.D. at 10 ng/mL antigen / O.D. at 0 ng/mL; O.D. in column 0 printed 0.15
[21] = target: recombinant human FAM19A5 protein (His-tagged) (human) (UniProt Q7Z5A7); test: two-site sandwich ELISA; capture antibody 1-65; S/N = O.D. at 10 ng/mL antigen / O.D. at 0 ng/mL; O.D. in column 0 printed 0.12
[22] = target: recombinant human FAM19A5 protein (His-tagged) (human) (UniProt Q7Z5A7); test: two-site sandwich ELISA; capture antibody 2-13; S/N = O.D. at 10 ng/mL antigen / O.D. at 0 ng/mL; O.D. in column 0 printed 0.21
[23] = target: recombinant human FAM19A5 protein (His-tagged) (human) (UniProt Q7Z5A7); test: ELISA on N'-Term His FAM19A5, fit of the titration; R2 printed 0.8823
[24] = target: recombinant human FAM19A5 protein (His-tagged) (human) (UniProt Q7Z5A7); test: two-site sandwich ELISA; capture antibody P2-F11; biotinylated detection antibody 13B4; antigen in ng/mL
[25] = target: recombinant human FAM19A5 protein (His-tagged) (human) (UniProt Q7Z5A7); test: two-site sandwich ELISA; capture antibody P2-A03; biotinylated detection antibody 13B4; antigen in ng/mL
[26] = target: recombinant human FAM19A5 protein (His-tagged) (human) (UniProt Q7Z5A7); test: two-site sandwich ELISA; capture antibody P2-A03; S/N = O.D. at 10 ng/mL antigen / O.D. at 0 ng/mL; O.D. in column 0 printed 0.14
[27] = target: recombinant human FAM19A5 protein (His-tagged) (human) (UniProt Q7Z5A7); test: two-site sandwich ELISA; capture antibody 2-13; biotinylated detection antibody 13B4; antigen in ng/mL
[28] = target: T1, FAM19A5 epitope fragment F5 conjugated to BSA (human); test: ELISA, antigen coated on the plate, antibody in solution, absorbance at 492 nm; details: remark: other sources report otherwise
T1 chain: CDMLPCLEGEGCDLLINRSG

[29] = target: T2, FAM19A5 epitope fragment F1 conjugated to BSA (human); test: as above; details: remark: other sources report otherwise
T2 chain: QLAAGTCEIVTLDR

[30] = target: T3, FAM19A5 epitope fragment F3 conjugated to BSA (human); test: as above; details: remark: other sources report otherwise
T3 chain: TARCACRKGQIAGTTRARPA

[31] = target: T4, FAM19A5 epitope fragment F4 conjugated to BSA (human); test: as above; details: remark: other sources report otherwise
T4 chain: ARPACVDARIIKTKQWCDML

[32] = target: T5, FAM19A5 epitope fragment F6 conjugated to BSA (human); test: as above; details: remark: other sources report otherwise
T5 chain: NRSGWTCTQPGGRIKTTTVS

B1: anti-FAM19A5 antibody 1-65 (antibody, V domains shown)
VH: AVTLDESGGGLQTPGGALSLVCKASGFTFSSYQMGWVRQAPGKGLEWVGVINKSGSDTSYGSAVKGRATISRDNGQSTVRLQLNNLRAEDTGTYFCAKGSASYITAATIDAWGHGTEVIVSS
VL: ALTQPSSVSANPGETVKITCSGGGSSGYGYGWYQQKSPSSAPLTVIYWNDKRPSDIPSRFSGSKSGSTHTLTITGVQAEDEAVYFCGNDDYSSDSGYVGVFGAGTTLTVL
Q: How did the S/N [1] turn out when B1 was run?
A: 3.3

Q: And the S/N [2]?
A: 1.7

Q: And the S/N [3]?
A: 1

Q: What about the O.D. [4] of the same binder?
A: 3.95

Q: What about the S/N [5] of the same binder?
A: 6.5

Q: And the Bmax [6]?
A: 3.26

Q: And the O.D., antigen 100 [7]?
A: 1.73

Q: What about the O.D., antigen column 10 [7] of the same binder?
A: 1.81

Q: And the S/N [8]?
A: 1.1

Q: And the O.D., antigen 100 [9]?
A: 1.98

Q: And the O.D., antigen column 10 [9]?
A: 1.83

Q: What about the Kd [10] of the same binder?
A: 0.1 nM

Q: And the O.D., antigen 100 [11]?
A: 0.16

Q: What about the O.D., antigen column 10 [11] of the same binder?
A: 0.11

Q: And the O.D., antigen 100 [12]?
A: 1.61

Q: What about the O.D., antigen column 10 [12] of the same binder?
A: 0.33

Q: And the O.D., antigen 100 [13]?
A: 0.19

Q: What about the O.D., antigen column 10 [13] of the same binder?
A: 0.15

B2: 13F7 (antibody, V domains shown)
VH: QVQLQEWGAGLLKPSETLSLTCAINAESFNGYSWTWIRQTPGKGLEWIGEISHFGSANYNPSLKSRATISADKSKNQFSLKLTSVTAVDTAVYYCARALRGTYSRFYYGMDVWGQGTTVTVSS
VL: DIVMTQTPLSLPVAPGEPASISCRSSQSLLHSNGYNYLDWYVQKPGQPPQLLIYLGSNRASGVPDRFSGSGSGTDFTLKISRVEAEDVGVYYCMQARQTPLTFGGGTKVEIKR
Q: With B2 as the binder, how does the Bmax [14] read?
A: 3.04

Q: What about the Kd [15] of the same binder?
A: 2.77 nM

B3: anti-FAM19A5 antibody 13B4 (antibody, V domains shown)
VH: QVQLQESGPGLVKPSGTLSLNCAVSGGSISSSNWWSWVRQPPGKGLEWIGEIYHGGTTNYNPSLKGRVTMSVDKTKNQFSLRLSSVTAVDTAVYYCARWQLVGGLDVWGQGTTVTVSS
VL: SYELTQPLSVSVSPGQTASITCSGDKLGNVYASWYQQKPGQSPTLVIYQDNKRPSGIPERFSGSNSGKTATLTISGTQALDEADYYCQAWDSSTAVFGGGTKLTVLR
modifications: Biotinylated when used as detection antibody in FIG. 6B.
Q: What does the source list for B3?
A: Bmax [16]: 2.84; O.D., antigen 100 [17]: 0.12; O.D., antigen column 10 [17]: 0.12; S/N [18]: 2.3; O.D., antigen 100 [19]: 1.7; O.D., antigen column 10 [19]: 0.3; S/N [20]: 1.1; S/N [21]: 1; S/N [22]: 3.1; Kd [23]: 1.06 nM; O.D., antigen 100 [24]: 0.14; O.D., antigen column 10 [24]: 0.16; O.D., antigen 100 [25]: 0.15; O.D., antigen column 10 [25]: 0.16; S/N [26]: 1.1; O.D., antigen 100 [27]: 1.92; O.D., antigen column 10 [27]: 0.65

B4: anti-FAM19A5 antibody 3-2 (antibody, V domains shown)
VH: not shown
VL: ALTQPSSVSANPGETVKITCSGGGSYAGSYYYGWYQQKAPGSAPVTLIYESNKRPSDIPSRFSGSTSGSTATLTITGVQADDEAIYYCGSWDSSNGGIFGAGTTLTVL
modifications: here or on the partner: conjugated to BSA
Q: Which O.D. [28] does the source give for B4 here?
A: 0.05

Q: And the O.D. [29]?
A: 0.06 and 0.05

Q: And the O.D. [30]?
A: 0.06 and 0.05

Q: And the O.D. [31]?
A: 0.05

Q: And the O.D. [32]?
A: 0.05
